From the Immune Epitope Database (IEDB)

These sequences were tested against HLA-A*02:03 (assay: IEDB peptide-MHC binding, purified MHC/competitive/radioactivity; ≥ and ≤ were set here for values at or beyond the usual limits of such assays). Conditions: source organism: Influenza A virus.

Sequence | IC50
AAGAAVKGV | 2.3 µM
AIRGQYSGFV | 0.092 µM
FLKVPAQNA | 0.838 µM
GADINLMPI | 3.3 µM
HANNSTDTV | 4.32 µM
LAKSVFNSL | 3.1 µM
NALLKHRFEII | 4.1 µM
NTSQRGIL | 2.79 µM
RAMAWTVV | 2.42 µM
RASAGQISV | 4.96 µM
RTEIIRMMESA | 4.47 µM

Same assay, conditions: source organism: Vaccinia virus WR

Sequence | IC50
AAAKTPVIVV | 1.52 µM
AMHDKKIDI | 1.52 µM
DAKRNSKSLV | 2.87 µM
DIRDKYMEL | 3.86 µM
EIKAEMQLKI | 4.76 µM
EILRNYLRL | 2.09 µM
EIRGVLPEET | 4.87 µM
EIVSHLRAST | 2.81 µM
ELENKKVEYV | 3.65 µM
ELTSNCTRTT | 1.47 µM
EQYTCNKPYT | 3.01 µM
ETMYLTMKA | 0.942 µM
EVGTNFGTI | 1.94 µM
EVLMSPCRM | 0.651 µM
EVMPEKRNVV | 2.62 µM
FISYNRHNDT | 4.93 µM
FIVYGRSNA | 0.37 µM
FVKKMLPKII | 1.14 µM
GIIITVGML | 0.349 µM
GILIYDDNI | 1.7 µM

Sequence | IC50
GIRCVSNLDI | 3.87 µM
HQRRLVKLL | 1.68 µM
IAMLKSKNI | 0.846 µM
IIELPYVGDT | 4.42 µM
IIYSKAGNI | 0.013 µM
ILSEKRKDTI | 0.541 µM
ITNILGGVL | 2.44 µM
KLYIALCKVT | 0.625 µM
KTKISVEKI | 0.112 µM
LANERYRSA | 0.554 µM
LISSDGARVI | 1.15 µM
LMLHNPTSET | 4.48 µM
LMSDNPKAST | 0.938 µM
LVITYCLVT | 3.25 µM
MISTYPGNT | 0.229 µM
NISFKSINKV | 1.53 µM
NLERETGLSA | 1.66 µM
NMWREILSNT | 0.056 µM
NTKSDNIINI | 1.08 µM
NTLISSDGA | 3.57 µM

Sequence | IC50
PTSETMYLT | 3.64 µM
QMYRKFSRCT | 2.27 µM
QVKDNIISRT | 0.421 µM
RLLKNMKQCT | 3.14 µM
RTRLYDYFT | 3.05 µM
RVNHAKYMVT | 1.05 µM
SLETVKMGA | 0.547 µM
SMTSDSKSI | 2.3 µM
SMYTRLRQDT | 1.14 µM
STKADAVVA | 4.95 µM
SVDAMIHKT | 3.66 µM
SVKYYGRST | 1.16 µM
SVNASKTINA | 0.731 µM
TAGNKVDVDI | 3.5 µM
TAIRAGYSIV | 0.072 µM
TVEFDRDKVV | 1.59 µM
VIRHVDGKI | 0.978 µM
YVSSSYKDI | 1.2 µM

Each sequence was assayed against HLA-A*02:01 in the same assay as above. Conditions: source organism: Vaccinia virus WR.

Sequence | IC50
LVITYCLVT | 1.33 µM
NMWREILSNT | 0.997 µM

What follows are sequences tested against HLA-A*68:02 in the same assay as above. Conditions: source organism: Influenza A virus.

Sequence | IC50
GADINLMPI | 4.41 µM
HANNSTDTV | 0.168 µM
RTEIIRMMESA | 4.32 µM

Same assay, conditions: source organism: Vaccinia virus WR

Sequence | IC50
EIRGVLPEET | 4.54 µM
ETMYLTMKA | 0.00064 µM
EVGTNFGTI | 0.069 µM
EVLMSPCRM | 1.52 µM
EVMPEKRNVV | 0.107 µM
FISYNRHNDT | 2.28 µM
NISFKSINKV | 2.03 µM
NTKSDNIINI | 0.101 µM
PTSETMYLT | 4.04 µM
RVNHAKYMVT | 0.544 µM
STKADAVVA | 0.82 µM
SVDAMIHKT | 0.878 µM
SVNASKTINA | 0.629 µM
TAIRAGYSIV | 1.05 µM
TVEFDRDKVV | 2.63 µM
VIRHVDGKI | 1.45 µM
YVSSSYKDI | 2.63 µM

What follows are sequences tested against HLA-A*02:06 (assay: IEDB peptide-MHC binding, cellular MHC/competitive/fluorescence; ≥ and ≤ were set here for values at or beyond the usual limits of such assays). Conditions: source organism: Influenza A virus.

Sequence | IC50
AAGAAVKGV | 25.5 µM
AIRGQYSGFV | 42.8 µM
FLKVPAQNA | ≥ 70 µM
GADINLMPI | 5.77 µM
HANNSTDTV | 55 µM
LAKSVFNSL | 17.1 µM
NALLKHRFEII | 5.36 µM
NTSQRGIL | ≥ 70 µM
RAMAWTVV | 7.78 µM
RASAGQISV | 11.5 µM
RTEIIRMMESA | ≥ 70 µM

Same assay, conditions: source organism: Vaccinia virus WR

Sequence | IC50
AAAKTPVIVV | 13.4 µM
AMHDKKIDI | 42 µM
DAKRNSKSLV | 52.1 µM
DIRDKYMEL | 14.6 µM
EIKAEMQLKI | 14.3 µM
EILRNYLRL | 12.9 µM
EIRGVLPEET | 20.1 µM
EIVSHLRAST | 12.6 µM
ELENKKVEYV | ≥ 70 µM
ELTSNCTRTT | 5.72 µM
EQYTCNKPYT | 45.7 µM
ETMYLTMKA | 12.7 µM
EVGTNFGTI | 19.9 µM
EVLMSPCRM | 11.8 µM
EVMPEKRNVV | 12.1 µM
FISYNRHNDT | 11.2 µM
FIVYGRSNA | 8.75 µM
FVKKMLPKII | 6.71 µM
GIIITVGML | 18.4 µM
GILIYDDNI | 13.3 µM

Sequence | IC50
GIRCVSNLDI | 33 µM
HQRRLVKLL | 21.3 µM
IAMLKSKNI | 10.6 µM
IIELPYVGDT | 17 µM
IIYSKAGNI | 13.7 µM
ILSEKRKDTI | ≥ 70 µM
ITNILGGVL | 32.5 µM
KLYIALCKVT | 6.36 µM
KTKISVEKI | 10.7 µM
LANERYRSA | ≥ 70 µM
LISSDGARVI | 34.9 µM
LMLHNPTSET | 11.1 µM
LMSDNPKAST | 47.4 µM
LVITYCLVT | 8.01 µM
MISTYPGNT | 25.7 µM
NISFKSINKV | 11.7 µM
NLERETGLSA | 15 µM
NMWREILSNT | 12 µM
NTKSDNIINI | ≥ 70 µM
NTLISSDGA | 49.3 µM

Sequence | IC50
PTSETMYLT | ≥ 70 µM
QMYRKFSRCT | 14.7 µM
QVKDNIISRT | 34.3 µM
RLLKNMKQCT | 11.9 µM
RTRLYDYFT | 48.7 µM
RVNHAKYMVT | 9.34 µM
SLETVKMGA | 23.4 µM
SMTSDSKSI | 56.1 µM
SMYTRLRQDT | 42 µM
STKADAVVA | 16.2 µM
SVDAMIHKT | 10.6 µM
SVKYYGRST | 19.5 µM
SVNASKTINA | 28.7 µM
TAGNKVDVDI | 38.1 µM
TAIRAGYSIV | 8.59 µM
TVEFDRDKVV | 30.8 µM
VIRHVDGKI | 9.27 µM
YVSSSYKDI | 16.6 µM

Each sequence was assayed against HLA-A*02:02 in the same assay as above. Conditions: source organism: Influenza A virus.

Sequence | IC50
AAGAAVKGV | ≥ 70 µM
AIRGQYSGFV | 6.28 µM
FLKVPAQNA | 6.66 µM
GADINLMPI | 7.41 µM
HANNSTDTV | 8.32 µM
LAKSVFNSL | 14 µM
NALLKHRFEII | 11.2 µM
NTSQRGIL | 5.1 µM
RAMAWTVV | 8.18 µM
RASAGQISV | 38.8 µM
RTEIIRMMESA | 8.29 µM
